The record followed here is patent publication US20120189540A1 (STEMLINE THERAPEUTICS, published 2012).

For assay [1], the target named is transferrin receptor (human) (UniProt P02786). As to the kind of experiment: cell-based or functional assay.
In assay [2] the target is IL-3 receptor alpha subunit (IL3Rα, CD123) (human) (UniProt P26951). As to the kind of experiment: flow cytometry on ML-1 cells, isotype control-PE at 10 µg/ml [panel ML-1 (1900/cell].
Assay [3] concerns the target T1, IL-3 receptor alpha subunit (IL3Rα, CD123) (human, UniProt P26951 19-378).
T1 construct: whole, on cells; also called IL3Rα chain; alpha subunit of the IL-3 receptor
As to the kind of experiment: flow cytometry on TF-1 cells (CD123-expressing), mAb at 0.5 µg/ml, detected with R-PE goat F(ab')2 anti-mouse IgG, MOPC-21 isotype control subtracted [panel A]. In general terms: In flow cytometry, cells or beads pass a laser one at a time.

Changes are numbered by the printed parent chain.

T1 sequence (P26951 19-378): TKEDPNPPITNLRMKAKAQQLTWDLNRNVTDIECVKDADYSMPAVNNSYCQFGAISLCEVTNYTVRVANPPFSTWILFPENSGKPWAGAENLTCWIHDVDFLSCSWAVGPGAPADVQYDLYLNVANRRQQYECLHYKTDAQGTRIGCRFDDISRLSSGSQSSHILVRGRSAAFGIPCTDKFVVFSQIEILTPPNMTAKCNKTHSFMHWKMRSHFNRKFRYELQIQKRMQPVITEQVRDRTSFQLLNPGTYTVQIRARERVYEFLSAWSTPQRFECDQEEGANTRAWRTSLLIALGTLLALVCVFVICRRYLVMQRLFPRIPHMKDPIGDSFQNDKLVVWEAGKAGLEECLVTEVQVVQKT
Chain of transferrin receptor (human) (P02786 whole entry): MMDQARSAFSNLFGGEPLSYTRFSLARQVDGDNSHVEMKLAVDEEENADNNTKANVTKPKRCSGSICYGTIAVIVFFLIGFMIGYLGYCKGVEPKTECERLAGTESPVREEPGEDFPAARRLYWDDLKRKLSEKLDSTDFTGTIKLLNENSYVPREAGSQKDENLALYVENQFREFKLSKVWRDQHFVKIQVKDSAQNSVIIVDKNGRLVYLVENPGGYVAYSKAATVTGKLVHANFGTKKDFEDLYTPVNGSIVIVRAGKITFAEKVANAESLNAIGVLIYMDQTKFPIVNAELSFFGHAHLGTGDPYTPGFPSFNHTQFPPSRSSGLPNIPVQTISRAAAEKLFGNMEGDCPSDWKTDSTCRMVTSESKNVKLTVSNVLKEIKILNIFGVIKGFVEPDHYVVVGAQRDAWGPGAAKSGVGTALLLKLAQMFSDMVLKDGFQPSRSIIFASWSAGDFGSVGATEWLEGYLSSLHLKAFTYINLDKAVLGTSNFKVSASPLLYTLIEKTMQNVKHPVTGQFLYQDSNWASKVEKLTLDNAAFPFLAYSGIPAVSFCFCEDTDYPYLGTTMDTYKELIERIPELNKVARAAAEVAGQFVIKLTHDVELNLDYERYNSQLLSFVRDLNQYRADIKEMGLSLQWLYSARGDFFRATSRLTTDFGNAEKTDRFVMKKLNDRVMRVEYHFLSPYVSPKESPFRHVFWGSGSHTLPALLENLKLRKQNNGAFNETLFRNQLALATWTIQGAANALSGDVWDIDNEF
Chain of IL-3 receptor alpha subunit (IL3Rα, CD123) (human) (P26951 19-378): as the sequence (P26951 19-378) above

In assay [1], HB21(Fv)-PE40 (scFv) gave an IC50(ng/ml), cytotoxicity (WST-8 cell viability) on ML-1 of 5.2 ng/mL; an IC50(ng/ml), cytotoxicity (WST-8 cell viability) on Molm-14 of 60 ng/mL; an IC50(ng/ml), cytotoxicity (WST-8 cell viability) on TF-1 of 2.2 ng/mL. As to isotype control-PE (antibody), in assay [2], the number printed beside the histogram (fluorescence on the FL-2:PE axis, not named on the sheet) is 7.1.

B1: monoclonal antibody 32701 (antibody, V domains shown)
VH: QIQLVQSGPELKKPGETVKISCKTSGYVFTNYGMNWVKQAPGKGFKWMGWMNTNTGEPTSLEDFKGRFAFSLETSASTAYLQINNLKNDDTATYFCARSGGYDPMDYWGQGTSVTVSS
VL: DIVLTQSPASLAVSPGQRATISCRASESVDNYGNTFMHWYQQKPGQPPKLLIYRASNLESGIPARFSGSDSRTDFTLTINPVEADDVATYYCQQSKEDPPTFGAGTKLELK
With B1, the binding result in assay [3] is “binds”.

B2: monoclonal antibody 32716 (antibody, V domains shown)
VH: QIQLVQSGPELKKPGETVKISCKASGYIFTNYGMNWVKQAPGKSFKWMGWINTYTGESTYSADFKGRFAFSLETSASTAYLHINDLKNEDTATYFCARSGGYDPMDYWGQGTSVTVSS
VL: B1 VL with P15L, D70G, K96N
In the case of B2, the binding result in assay [3] is “binds”.

B3: monoclonal antibody 26292 (antibody, V domains shown)
VH: QVQLQQPGAELVRPGASVKLSCKASGYTFTSYWMNWVKQRPDQGLEWIGRIDPYDSETHYNQKFKDKAILTVDKSSSTAYMQLSSLTSEDSAVYYCARGNWDDYWGQGTTLTVSS
VL: DVQITQSPSYLAASPGETITINCRASKSISKDLAWYQEKPGKTNKLLIYSGSTLQSGIPSRFSGSGSGTDFTLTISSLEPEDFAMYYCQQHNKYPYTFGGGTKLEIK
On to B3, for which, in assay [3], the binding result is reported as “binds”.
